Patent US7521230B2, “Nucleic acid encoding a Brain Derived Tau Kinase polypeptide and methods of use thereof” (Board of Regents of the University of Nebraska, priority 2002, dated 2009)
Values belong to the compound of their own block, whether it stands above or below them.

How the values were obtained:
[1] = molecular target: GSK-3beta (Homo sapiens, UniProt P49841); conditions: cited from earlier work
[2] = molecular target: CDK-5 (Homo sapiens, UniProt Q00535); conditions: cited from earlier work
Chain of CDK-5 (Q00535 whole entry, species assumed): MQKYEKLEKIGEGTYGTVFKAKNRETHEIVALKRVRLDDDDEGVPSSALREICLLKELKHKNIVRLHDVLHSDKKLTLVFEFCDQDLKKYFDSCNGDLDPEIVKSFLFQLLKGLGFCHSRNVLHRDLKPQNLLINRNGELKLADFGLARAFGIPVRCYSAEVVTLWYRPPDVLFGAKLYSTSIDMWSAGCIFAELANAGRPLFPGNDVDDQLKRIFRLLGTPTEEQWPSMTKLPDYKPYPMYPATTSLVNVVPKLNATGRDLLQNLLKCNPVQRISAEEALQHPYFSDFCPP
Chain of CDK-5 (Q15078 whole entry partner, species assumed): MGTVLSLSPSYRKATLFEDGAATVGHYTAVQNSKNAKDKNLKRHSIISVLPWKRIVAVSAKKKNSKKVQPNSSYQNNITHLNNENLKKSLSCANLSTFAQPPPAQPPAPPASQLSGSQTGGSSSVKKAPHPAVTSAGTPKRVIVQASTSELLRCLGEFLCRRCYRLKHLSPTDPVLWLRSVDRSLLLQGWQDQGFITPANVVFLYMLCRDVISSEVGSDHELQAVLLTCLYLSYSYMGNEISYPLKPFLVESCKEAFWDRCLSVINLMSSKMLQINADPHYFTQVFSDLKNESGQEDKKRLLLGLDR

[3] = system: BDTK promoter (CpG1.2-luciferase) in HEK 293 cells; assay: CpG1.2-luciferase BDTK promoter reporter assay in HEK293 cells; type: cell-based, human; conditions: A-beta 1-42 0-30 μg/ml, 24 hours
Experimental: A luciferase assay was used to determine promoter activity. To conduct this assay, 1.2 kb and 0.6 kb promoter sequence were inserted into pGL3-control vector (Promega, named as CpG1.2 and CpG0.6, respectively). The luciferase constructs were co-transfected with reference reporter gene (thymidine kinase promoter TK-RL plasmid, Promega) into PC12 and HEK293 cells using lipofection method (GenePorter, Gene Therapy Systems, Inc.). At 48 hours after DNA transfection, each luciferase activity was measured using Dua1-luciferase kit (Promega). […] CpG1.2-luciferase vector was tested for its promoter activity by increasing dose of extracellular beta-amyloid peptide (A-beta) 1-42 (0-30 μg/ml) for 24 hours. CpG1.2 luciferase activities (PC12-CpG or HEK-CpG) are 8- to 10-fold higher than control activities (PC12-control or HEK293-control) without beta-amyloid stimulation.

[4] = molecular target: T1, BDTK (Homo sapiens, UniProt Q5TCY1); assay: BDTK phosphorylation (autophosphorylation) in vitro; type: biochemical
T1 construct: made in house
T1 sequence (Q5TCY1 38-319): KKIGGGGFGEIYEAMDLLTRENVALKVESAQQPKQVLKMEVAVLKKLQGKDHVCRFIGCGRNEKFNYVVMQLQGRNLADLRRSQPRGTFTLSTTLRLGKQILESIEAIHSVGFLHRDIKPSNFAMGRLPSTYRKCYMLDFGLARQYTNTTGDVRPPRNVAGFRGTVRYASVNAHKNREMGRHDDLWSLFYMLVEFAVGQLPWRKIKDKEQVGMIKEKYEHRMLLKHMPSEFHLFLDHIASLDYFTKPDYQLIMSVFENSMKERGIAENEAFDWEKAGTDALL
Experimental: Purified recombinant human tau (Calbiochem) was phosphorylated by purified BDTK(38-319) and BDTK(52-319) in vitro. Briefly, 1 μg of tau protein and 1 μg of BDTK mutants were incubated in buffer A (50 mM Tris-Cl, pH 7.5, 5mM Mg acetate, 1 mM EDTA, 1 mM DTT, 0.1 mM ATP, 2 μCi [γ-^32P]ATP) or buffer B (100 mM Mes-Na, pH 6.5, 5 mM Mg acetate, 1 mM EGTA, 1 mM DTT, 0.2 mM ATP, and 2 μCi[γ-^32P]ATP). The reaction was stopped at 30, 60, 120, and 180 minutes by addition of Laemmli sampling buffer. Samples were then subjected to SDS-PAGE and autoradiography.
An assay was conducted to identify promoters and inhibitors of BDTK activity. BDTK peptides may be used to inhibit BDTK activity. Two synthetic peptides (N21: […] (SEQ ID NO:21) and AA21: […]) (SEQ ID NO:22) are synthesized to test if N21 and A21, where conserved two glycine residues are substituted with alanine, has inhibitory effect of BDTK kinase activity in vitro. Increasing amounts of peptides (0-1 mM) were tested for BDTK and tau phosphorylation, in vitro. […] AA21 mutated peptide increased both BDTK (AA21-BDTK, from 30 to 300 μM) and tau phosphorylation (AA21-tau, from 30 μM to […]) in dose response manner.

[5] = molecular target: T1, BDTK; assay: BDTK-mediated tau phosphorylation in vitro; type: biochemical

Chain of GSK-3beta (P49841 whole entry, species assumed): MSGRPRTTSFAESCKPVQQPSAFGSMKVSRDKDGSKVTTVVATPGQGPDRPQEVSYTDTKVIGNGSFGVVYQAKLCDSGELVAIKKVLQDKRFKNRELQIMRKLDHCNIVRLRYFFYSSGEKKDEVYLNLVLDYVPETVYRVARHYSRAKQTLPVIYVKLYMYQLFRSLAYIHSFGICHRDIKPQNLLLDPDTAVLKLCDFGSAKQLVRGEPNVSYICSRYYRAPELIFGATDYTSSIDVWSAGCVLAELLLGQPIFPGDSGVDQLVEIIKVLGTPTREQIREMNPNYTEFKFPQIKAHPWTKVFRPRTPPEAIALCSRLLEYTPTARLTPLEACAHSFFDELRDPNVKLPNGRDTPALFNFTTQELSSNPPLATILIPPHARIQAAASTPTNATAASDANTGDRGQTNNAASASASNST

Compound: CC(C)[C@H](CO)Nc1nc(Nc2cccc(Cl)c2)c2ncn(C(C)C)c2n1 [puralanol A]
IC50 [1]: 13 µM | IC50 [2]: 0.075 µM

Compound: Beta-amyloid: extracellular beta-amyloid peptide (A-beta) 1-42
effect on CpG1.2-luciferase activity [3]: weakly stimulated

inhibition of BDTK phosphorylation ([4]; peptide 100 μM-1 mM): up to 70% | effect on tau phosphorylation (N21-tau) ([5]; peptide from 300 μM to 1 μM): partially inhibited
Compound: KDRWKVVKKIGGGGFGEIYEA [N21]

effect on BDTK phosphorylation (AA21-BDTK) ([4]; peptide from 30 to 300 μM, dose response manner): increased | effect on tau phosphorylation (AA21-tau) ([5]; peptide from 30 μM to 1 μM, dose response manner): increased
Compound: KDRWKVWKKIAGAGFGEIYEA [AA21]
